Series [1] deals with the molecule itself. In words: immunoblot of oligomer bands after SDS-PAGE; C2C12 myoblasts transfected with EYFP tagged REEP5 and truncation mutants; SDS-resistant dimers.
Series [2] concerns the molecule itself. As to the kind of experiment: immunoblot of oligomer bands after SDS-PAGE; lysates and nickel-His eluate of transfected HEK293 cells; increasing DTT lowered the dimer band. (In western blotting, separated proteins are transferred to a membrane and probed.)

One may read the stoichiometry N as a count of units in the complex or per binding partner.

B1: Δ1–36 REEP5-EYFP (domain or fragment)
chain: not shown
notes: REEP5, human (NM_005669.4), lacking residues 1-36; source: C2C12 myoblasts, transfected, in lysate
With B1, the “stoichiometry N” value in series [1] was determined as 2.

B2: endogenous REEP5 (HEK293) (natural protein)
chain: not shown
notes: Receptor expression-enhancing protein 5 (REEP5), endogenous in HEK293 cells; source: endogenous, HEK293 lysate
As for B2, the “stoichiometry N” value in series [2] came to 2.

B3: CnVA-tagged (StrepII-6xHis, 3xFlag) REEP5 (natural protein)
chain: not shown
notes: Receptor expression-enhancing protein 5 (REEP5), human, subcloned from NM_005669.4 into pLD-puro-CnVA; also called CnVA-REEP5; source: HEK293, transfected, in lysate; nickel-His purification
Take B3: the “stoichiometry N” value in series [2] was found to be 2.

B4: REEP5-EYFP (natural protein)
chain: not shown
notes: Receptor expression-enhancing protein 5 (REEP5), human (NM_005669.4), parent of the EYFP tagged truncation mutants; source: C2C12 myoblasts, transfected, in lysate
On to B4, for which the “stoichiometry N” value in series [1] is 2.

B5: REEP5-V5-6xHis (natural protein)
chain: not shown
notes: REEP5 was fused to a V5 tag followed by a 6xHis tag; source: HEK293, transfected, in lysate
As for B5, the “stoichiometry N” value in series [2] worked out at 2.
